Assay results: US20230341395A1 (GEMINA LABORATORIES, published 2023)

How the values were obtained:
[1] = biological target: T1, Recombinant SARS-CoV-2 Spike protein antigen (Z03501, Genscript) (SARS-CoV-2, UniProt P0DTC2 16-685); test: dot blot dipstick, gold nanoparticles with fusion protein and no antibody
T1 construct: also called S antigen; S protein antigen

[2] = biological target: T2, Recombinant SARS-CoV-2 Nucleocapsid protein antigen (Z03488, Genscript) (SARS-CoV-2, UniProt P0DTC9 1-419); test: as above
T2 construct: also called N protein antigen; Nucleocapsid antigen

[3] = biological target: Monoclonal antibody against the SARS-CoV-2 Nucleocapsid protein (A02039, Genscript)
[4] = biological target: Monoclonal antibody against the SARS-CoV-2 Spike protein (A02038, Genscript)

B1: Gold-binding fusion protein EMT-003 (Protein G' - linker - gold binding protein) (other)
chain: MTYKLILNGKTLKGETTTEAVDAATAEKVFKQYANDNGVDGEWTYDDATKTFTVTEKPEVIDASELTPAVTTYKLVINGKTLKGETTTEAVDAATAEKVFKQYANDNGVDGEWTYDDATKTFTVTEKPEVIDASELTPAVTTYKLVINGKTLKGETTTKAVDAETAEKAFKQYANDNGVDGVWTYDDATKTFTVTEGGGGSGGGGSGGGGSASGGGMHGKTQATSGTIQSMHGKTQATSGTIQSMHGKTQATSGTIQSMHGKTQATSGTIQSMHGKTQATSGTIQSMHGKTQATSGTIQSMHGKTQATSGTIQS
notes: also called EMT-03; gold fusion protein
binding result [1]: no binding (tested: 0.5 µg antigen spotted)
binding result [2]: no binding (tested: 0.5 µg antigen spotted)
Kd [3]: 0.258 nM
koff [3]: 0.000149 s⁻¹
kon [3]: 577000 M⁻¹ s⁻¹
Kd [4]: 0.192 nM
koff [4]: 0.000103 s⁻¹
kon [4]: 537000 M⁻¹ s⁻¹
